According to PMC9482650, “Quantitative fragmentomics allow affinity mapping of interactomes” (Nature Communications, 2022):

Assays:
Test in all cases: holdup assay
Parameters in all cases: key: below the threshold = too weak to quantify, mostly under pKd 3.1 to 4
Conditions in all cases: plain residues with an end cap or a label only (N-terminal biotin on a linker: ttds)
DLG2_1, Q15700 = biological target: DLG2_1, Q15700
DVL2, O14641 = biological target: DVL2, O14641
GIPC1, O14908 = biological target: T1, GIPC1, O14908
T1 sequence (O14908 128-223, limits assumed, looked up): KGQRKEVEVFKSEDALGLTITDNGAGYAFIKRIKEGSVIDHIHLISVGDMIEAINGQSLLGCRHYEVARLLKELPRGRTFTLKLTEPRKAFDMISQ

LIN7A, O14910 = biological target: T2, LIN7A, O14910
T2 sequence (O14910 103-200, limits assumed, looked up): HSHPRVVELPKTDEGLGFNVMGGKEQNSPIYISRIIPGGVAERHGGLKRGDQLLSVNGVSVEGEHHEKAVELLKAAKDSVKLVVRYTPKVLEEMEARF

MAGI1_5, Q96QZ7 = biological target: MAGI1_5, Q96QZ7
MAGI3_3, Q5TCQ9 = biological target: MAGI3_3, Q5TCQ9
MAGI3_5, Q5TCQ9 = biological target: MAGI3_5, Q5TCQ9
MAGIX, Q9H6Y5 = biological target: MAGIX, Q9H6Y5
MAST3, O60307 = biological target: MAST3, O60307
MPDZ_13, O75970 = biological target: T3, MPDZ_13, O75970
T3 sequence (O75970 1982-2070, limits assumed, looked up): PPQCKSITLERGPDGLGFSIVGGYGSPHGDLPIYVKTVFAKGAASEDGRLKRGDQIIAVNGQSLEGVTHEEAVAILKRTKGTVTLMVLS

MPDZ_7, O75970 = biological target: T4, MPDZ_7, O75970
T4 sequence (O75970 1146-1253, limits assumed, looked up): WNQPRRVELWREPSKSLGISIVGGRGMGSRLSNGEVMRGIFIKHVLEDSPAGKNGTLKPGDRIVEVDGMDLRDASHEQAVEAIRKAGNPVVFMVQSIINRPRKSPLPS

MPP1, Q00013 = biological target: T5, MPP1, Q00013
T5 sequence (Q00013 66-162, limits assumed, looked up): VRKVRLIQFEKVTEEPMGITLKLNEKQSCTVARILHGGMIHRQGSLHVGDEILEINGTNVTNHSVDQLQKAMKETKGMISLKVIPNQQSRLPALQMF

NHERF3_2, Q5T2W1 = biological target: T6, NHERF3_2, Q5T2W1
T6 sequence (Q5T2W1 129-225, limits assumed, looked up): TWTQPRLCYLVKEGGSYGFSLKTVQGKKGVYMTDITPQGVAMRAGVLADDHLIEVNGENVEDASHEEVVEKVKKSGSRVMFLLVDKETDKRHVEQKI

PARD6G, Q9BYG4 = biological target: T7, PARD6G, Q9BYG4
T7 sequence (Q9BYG4 153-261, limits assumed, looked up): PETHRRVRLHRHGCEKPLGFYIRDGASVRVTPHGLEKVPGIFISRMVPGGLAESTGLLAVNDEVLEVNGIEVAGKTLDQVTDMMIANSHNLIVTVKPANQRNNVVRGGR

PDLIM3, Q53GG5 = biological target: T8, PDLIM3, Q53GG5
T8 sequence (Q53GG5 1-94, limits assumed, looked up): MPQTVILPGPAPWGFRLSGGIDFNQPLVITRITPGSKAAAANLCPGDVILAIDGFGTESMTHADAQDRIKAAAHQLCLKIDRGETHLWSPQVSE

PDLIM4, P50479 = biological target: PDLIM4, P50479
PDZD2_3, O15018 = biological target: T9, PDZD2_3, O15018
T9 sequence (O15018 581-682, limits assumed, looked up): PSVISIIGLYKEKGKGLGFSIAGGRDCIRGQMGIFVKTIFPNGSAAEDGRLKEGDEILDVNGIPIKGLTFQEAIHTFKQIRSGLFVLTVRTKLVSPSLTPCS

PDZD9, Q8IXQ8 = biological target: PDZD9, Q8IXQ8
PTPN4, P29074 = biological target: T10, PTPN4, P29074
T10 sequence (P29074 512-599, limits assumed, looked up): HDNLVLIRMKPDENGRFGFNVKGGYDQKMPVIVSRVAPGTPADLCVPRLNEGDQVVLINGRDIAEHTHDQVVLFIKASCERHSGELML

RGS3, P49796-9 = biological target: RGS3, P49796-9
SDCBP_1, O00560 = biological target: SDCBP_1, O00560
SHROOM3, Q8TF72 = biological target: T11, SHROOM3, Q8TF72
T11 sequence (Q8TF72 20-120, limits assumed, looked up): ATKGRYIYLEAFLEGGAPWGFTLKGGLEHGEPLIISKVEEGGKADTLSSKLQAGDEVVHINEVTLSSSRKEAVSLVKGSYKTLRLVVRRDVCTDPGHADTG

SHROOM4, Q9ULL8 = biological target: T12, SHROOM4, Q9ULL8
T12 sequence (Q9ULL8 5-102, limits assumed, looked up): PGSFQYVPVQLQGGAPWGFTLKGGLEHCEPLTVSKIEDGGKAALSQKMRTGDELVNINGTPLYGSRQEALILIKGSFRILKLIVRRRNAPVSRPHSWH

USH1C_1, Q9Y6N9 = biological target: T13, USH1C_1, Q9Y6N9
T13 sequence (Q9Y6N9 82-179, limits assumed, looked up): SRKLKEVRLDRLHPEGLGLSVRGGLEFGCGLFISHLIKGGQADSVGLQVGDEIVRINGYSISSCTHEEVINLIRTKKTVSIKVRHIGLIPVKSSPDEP

Chain of RGS3, P49796-9 (P49796 other isoform, or with tags, fused parts or gaps): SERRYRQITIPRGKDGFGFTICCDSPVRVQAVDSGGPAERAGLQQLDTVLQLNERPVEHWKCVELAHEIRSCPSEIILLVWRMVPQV
Chain of MAST3, O60307 (O60307 945-1048): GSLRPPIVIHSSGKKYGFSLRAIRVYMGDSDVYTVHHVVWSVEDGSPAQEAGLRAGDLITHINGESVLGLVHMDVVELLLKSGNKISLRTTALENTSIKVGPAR
Chain of PDZD9, Q8IXQ8 (Q8IXQ8 23-120): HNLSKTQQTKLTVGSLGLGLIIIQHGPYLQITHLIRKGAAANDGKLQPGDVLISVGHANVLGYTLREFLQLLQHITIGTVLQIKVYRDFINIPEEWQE
Chain of DVL2, O14641 (O14641 260-359): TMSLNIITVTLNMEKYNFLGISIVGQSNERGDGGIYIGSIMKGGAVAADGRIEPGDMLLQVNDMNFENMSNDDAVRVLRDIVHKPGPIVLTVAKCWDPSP
Chain of MAGIX, Q9H6Y5 (Q9H6Y5 118-211): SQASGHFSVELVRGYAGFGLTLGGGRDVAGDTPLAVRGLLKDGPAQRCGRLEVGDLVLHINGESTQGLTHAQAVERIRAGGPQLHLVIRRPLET
Chain of PDLIM4, P50479 (P50479 1-83): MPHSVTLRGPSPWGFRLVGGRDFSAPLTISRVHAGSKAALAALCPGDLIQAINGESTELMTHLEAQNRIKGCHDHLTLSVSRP
Chain of MAGI3_3, Q5TCQ9 (Q5TCQ9 572-655): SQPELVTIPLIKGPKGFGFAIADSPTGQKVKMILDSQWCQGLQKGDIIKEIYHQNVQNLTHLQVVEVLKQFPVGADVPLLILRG
Chain of MAGI3_5, Q5TCQ9 (Q5TCQ9 847-941): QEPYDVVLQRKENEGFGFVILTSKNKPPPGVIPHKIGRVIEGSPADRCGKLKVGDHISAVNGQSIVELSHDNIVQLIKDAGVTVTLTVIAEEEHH
Chain of MAGI1_5, Q96QZ7 (Q96QZ7 986-1098): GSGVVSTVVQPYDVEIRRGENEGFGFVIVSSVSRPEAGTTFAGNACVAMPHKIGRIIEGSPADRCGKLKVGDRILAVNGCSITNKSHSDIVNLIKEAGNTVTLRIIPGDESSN
Chain of SDCBP_1, O00560 (O00560 111-198): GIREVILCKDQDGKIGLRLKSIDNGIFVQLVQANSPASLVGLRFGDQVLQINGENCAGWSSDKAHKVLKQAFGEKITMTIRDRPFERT

Row | Binder | pKd (DLG2_1, Q15700) | pKd (DVL2, O14641) | pKd (GIPC1, O14908) | pKd (LIN7A, O14910) | pKd (MAGI1_5, Q96QZ7) | pKd (MAGI3_3, Q5TCQ9) | pKd (MAGI3_5, Q5TCQ9) | pKd (MAGIX, Q9H6Y5) | pKd (MAST3, O60307) | pKd (MPDZ_13, O75970) | pKd (MPDZ_7, O75970) | pKd (MPP1, Q00013) | pKd (NHERF3_2, Q5T2W1) | pKd (PARD6G, Q9BYG4) | pKd (PDLIM3, Q53GG5) | pKd (PDLIM4, P50479) | pKd (PDZD2_3, O15018) | pKd (PDZD9, Q8IXQ8) | pKd (PTPN4, P29074) | pKd (RGS3, P49796-9) | also measured
1 | PPRQRSETQV [HPV82-E6, Q9IR59] | 4.32 | below the threshold | 4.27 | below the threshold | 4.37 | below the threshold | below the threshold | below the threshold | below the threshold | below the threshold | below the threshold | 5.75 | below the threshold | below the threshold | below the threshold | below the threshold | below the threshold | below the threshold | below the threshold | below the threshold | pKd (SDCBP_1, O00560): below the threshold; pKd (SHROOM3, Q8TF72): below the threshold; pKd (SHROOM4, Q9ULL8): below the threshold; pKd (USH1C_1, Q9Y6N9): below the threshold
2 | SSIDLWETAL [SLC15A5, A6NIM6] | below the threshold | below the threshold | below the threshold | 4.27 | 5.82 | below the threshold | 5.57 | below the threshold | 4.91 | below the threshold | 6.09 | below the threshold | below the threshold | below the threshold | below the threshold | below the threshold | 5.1 | below the threshold | 4.84 | below the threshold | pKd (SDCBP_1, O00560): below the threshold; pKd (SHROOM3, Q8TF72): 4.81; pKd (SHROOM4, Q9ULL8): below the threshold; pKd (USH1C_1, Q9Y6N9): 4.64
3 | SRSRRRETAL [HPV33-E6, P06427] | 5.13 | below the threshold | below the threshold | below the threshold | below the threshold | below the threshold | below the threshold | below the threshold | below the threshold | below the threshold | below the threshold | 4.79 | below the threshold | below the threshold | below the threshold | below the threshold | below the threshold | below the threshold | 5.02 | below the threshold | pKd (SDCBP_1, O00560): below the threshold; pKd (SHROOM3, Q8TF72): below the threshold; pKd (SHROOM4, Q9ULL8): below the threshold; pKd (USH1C_1, Q9Y6N9): below the threshold
4 | SGGKRKETLV [NET1, Q7Z628] | 4.87 | below the threshold | 4.28 | below the threshold | 4.72 | below the threshold | 3.72 | below the threshold | below the threshold | 3.75 | 4.35 | below the threshold | below the threshold | below the threshold | below the threshold | below the threshold | below the threshold | below the threshold | 3.51 | below the threshold | pKd (SDCBP_1, O00560): below the threshold; pKd (SHROOM3, Q8TF72): below the threshold; pKd (SHROOM4, Q9ULL8): below the threshold; pKd (USH1C_1, Q9Y6N9): below the threshold
